Reference: article PMC3462613
Read-outs that look alike come from different tables or passages of the source.

Legend:
Test in all cases: fluorescence polarisation
[1] = target: FITC-labelled SMN^26–51, wild type (human) (UniProt Q16637)
[2] = target: FITC-labelled SMN^26–51 D44V (human) (UniProt Q16637)
[3] = target: FITC-labelled SMN^26–51, wild type (human) (UniProt Q16637); remark: listed apart in the source
[4] = target: FITC-labelled SMN^26–51, wild type (human) (UniProt Q16637); remark: listed apart in the source
[5] = target: FITC-labelled SMN^26–51 D44V (human) (UniProt Q16637); remark: listed apart in the source
[6] = target: FITC-labelled SMN^26–51, wild type (human) (UniProt Q16637); remark: listed apart in the source
[7] = target: FITC-labelled SMN^26–51, wild type (human) (UniProt Q16637); remark: listed apart in the source
[8] = target: FITC-labelled SMN^26–51, wild type (human) (UniProt Q16637); remark: listed apart in the source
[9] = target: FITC-labelled SMN^26–51 A46N (human) (UniProt Q16637)
[10] = target: FITC-labelled SMN^26–51 D35A (human) (UniProt Q16637)
[11] = target: FITC-labelled SMN^26–51 D36A (human) (UniProt Q16637)
[12] = target: FITC-labelled SMN^26–51 D44A (human) (UniProt Q16637)
[13] = target: FITC-labelled SMN^26–51 D44V (human) (UniProt Q16637); remark: listed apart in the source
[14] = target: FITC-labelled SMN^26–51 K41A (human) (UniProt Q16637)
[15] = target: FITC-labelled SMN^26–51 L39A (human) (UniProt Q16637)
[16] = target: FITC-labelled SMN^26–51 W34A (human) (UniProt Q16637)
[17] = target: FITC-labelled SMN^26–51 Y43A (human) (UniProt Q16637)
[18] = target: SMN^26–51 peptide containing phosphoserine at positions 28 and 31 (human) (UniProt Q16637)

Row | Substance | Kd [1] [nM] | Kd [2] [nM] | Kd [3] [nM] | Kd [4] [nM] | Kd [5] [nM] | Kd [6] [nM] | Kd [7] [nM] | Kd [8] [nM] | Kd [9] [nM] | Kd [10] [nM] | Kd [11] [nM] | Kd [12] [nM] | Kd [13] [nM] | Kd [14] [nM] | Kd [15] [nM] | Kd [16] [nM] | Kd [17] [nM] | Kd [18] [nM]
1 | Gemin2 (12–280) (natural protein) | 7 |  |  |  |  |  |  |  |  |  |  |  |  |  |  |  |  | 
2 | Gemin2^95–280 (domain or fragment) | 3.3 | 1.5 | 2.3 | 180 | 1800 | 2.2 | 5.2 | 2.4 | 42 | 6.8 | 8.3 | 5.3 | 8.4 | 4.8 | 74 | 16 | 510 | 4.2
